Assay results as given in paper PMC7797080 (Nucleic Acids Research, 2020).

Target: the molecule itself
Assay: SEC

B1: PSEUDOURIDINE KINASE from Arabidopsis (AtPUKI), native, tag-free (enzyme, Arabidopsis thaliana)
chain: GGGSMEPVIIGALILDVHAKPSTTPISGTTVPGQVLFAPGGVARNVADCIFKLGITPFMIGTLGLDGPANVLLKEWKLSMKGILRREDISTPIVSLVYDTNGEVAAGVAGVDAVENFLTPEWIQRFEYNISSARLLMVDANLSSLALEASCKLAAESSVPVWFEPVSVTKSQRIASIAKYVTIVSPNQDELIAMANALCAKNLFHPFRSDENKLSIEDMFRALKPAILVLLKNGVKVVIVTLGSNGALLCSKGNPKKALNIDRKFLRSGEVFKRVQSVCSPNRFSELGSNRSPSLFAMHFPTIPAKVKKLTGAGDCLVGGTVASLSDGLDLIQSLAVGIASAKAAVESDDNVPPEFKLDLISGDAELVYNGAKMLMVHQSML
stoichiometry N: 2
